Measurements: paper PMC2784022
Values belong to the molecule of their own block, whether it stands above or below them.

Biological target: Gal4BD-TR4LBD (mouse) (UniProt P49117)
Assay: two-hybrid

Sequence of UniProt P49117 (P49117 178-477): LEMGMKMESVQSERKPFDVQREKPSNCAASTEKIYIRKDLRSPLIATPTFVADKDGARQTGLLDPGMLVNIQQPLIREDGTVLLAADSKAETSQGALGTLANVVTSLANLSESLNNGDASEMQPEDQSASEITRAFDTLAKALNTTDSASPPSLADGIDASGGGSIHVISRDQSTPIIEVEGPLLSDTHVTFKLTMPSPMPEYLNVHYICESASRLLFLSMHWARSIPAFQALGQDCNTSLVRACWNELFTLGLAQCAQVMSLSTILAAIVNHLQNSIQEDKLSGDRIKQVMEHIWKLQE

fold enhancement of the two-hybrid reporter with γ-linoleic acid: 12 fold
Molecule: VP16AD-PCAF (from UniProt Q92831 1-832) (natural protein)

fold enhancement of the two-hybrid reporter with γ-linoleic acid: 23 fold
B1: VP16AD-RIP140 (natural protein)
chain: MTHGEELGSDVHQDSIVLTYLEGLLMHQAAGGSGTAINKKSAGHKEEDQNFNLSGSAFPSCQSNGPTVSTQTYQGSGMLHLKKARLLQSSEDWNAAKRKRLSDSIVNLNVKKEALLAGMVDSVPKGKQDSTLLASLLQSFSSRLQTVALSQQIRQSLKEQGYALSHESLKVEKDLRCYGVASSHLKTLLKKSKTKDQKSGPTLPDVTPNLIRDSFVESSHPAVGQSGTKVMSEPLSCAARLQAVASMVEKRASPAASPKPSVACSQLALLLSSEAHLQQYSREHALKTQNAHQVASERLAAMARLQENGQKDVGSSQLSKGVSGHLNGQARALPASKLVANKNNAATFQSPMGVVPSSPKNTSYKNSLERNNLKQAANNSLLLHLLKSQTIPTPMNGHSQNERASSFESSTPTTIDEYSDNNPSFTDDSSGDESSYSNCVPIDLSCKHRIEKPEAERPVSLENLTQSLLNTWDPKIPGVDIKEDQDTSTNSKLNSHQKVTLLQLLLGHKSEETVERNASPQDIHSDGTKFSPQNYTRTSVIESPSTNRTTPVSTPPLYTASQAESPINLSQHSLVIKWNSPPYACSTPASKLTNTAPSHLMDLTKGKESQAEKPAPSEGAQNSATFSASKLLQNLAQCGLQSSGPGEEQRPCKQLLSGNPDKPLGLIDRLNSPLLSNKTNAAEESKAFSSQPAGPEPGLPGCEIENLLERRTVLQLLLGNSSKGKNEKKEKTPARDEAPQEHSERAANEQILMVKIKSEPCDDFQTHNTNLPLNHDAKSAPFLGVTPAIHRSTAALPVSEDFKSEPASPQDFSFSKNGLLSRLLRQNQESYPADEQDKSHRNSELPTLESKNICMVPKKRKLYTEPLENPFKKMKNTAVDTANHHSGPEVLYGSLLHQEELKFSRNELDYKYPAGHSSASDGDHRSWARESKSFNVLKQLLLSENCVRDLSPHRSDSVPDTKKKGHKNNAPGSKPEFGISSLNGLMYSSPQPGSCVTDHRTFSYPGMVKTPLSPPFPEHLGCVGSRPEPGLLNGCSVPGEKGPIKWVIADMDKNEYEKDSPRLTKTNPILYYMLQKGGGNSVTTQETQDKDIWREPASAESLSQVTVKEELLPAAETKASFFNLRSPYNSHMGNNASRPHSTNGEVYGLLGNALTIKKESE
